Measurements published in paper PMC7196836, “Molecular analysis of the ribosome recycling factor ABCE1 bound to the 30S post‐splitting complex” (The EMBO Journal, 2020).

Target: ribosomal protein uS12 of Thermococcus celer (T. celer (endogenous in T. celer cells), UniProt P29161 1-147)
Experiment: cryo-EM structure; post-splitting complex from 1 nmol T. celer 70S split by ABCE1^IIEA (8 uM), aPelota and aRF1 (5 uM each), 0.5 mM AMP-PNP, 50 mM HEPES-KOH pH 7.5, 30 mM KCl, 10 mM MgCl2, 2 mM DTT, 65 °C 15 min; cross-linked with 1% formaldehyde; 30S fractions of a 10-30% sucrose gradient
Conditions: both partners purified

binding result: binds
B1: ABCE1^IIEA (E238A/E485A), hydrolysis-deficient ABCE1 from Saccharolobus solfataricus (enzyme)
chain: MRVAVINYDFCKPDKCNLECINFCPVDRSGGKAIELSEIVKGKPVIYEETCIGCGICVKKCPYEAISIVNLPDELEGEVIHRYKVNGFKLFGLPTPKNNTILGVLGKNGVGKTTVLKILAGEIIPNFGDPNSKVGKDEVLKRFRGKEIYNYFKELYSNELKIVHKIQYVEYASKFLKGTVNEILTKIDERGKKDEVKELLNMTNLWNKDANILSGGGLQRLLVAASLLREADVYIFDAPSSYLDVRERMNMAKAIRELLKNKYVIVVDHDLIVLDYLTDLIHIIYGESSVYGRVSKSYAARVGINNFLKGYLPAENMKIRPDEIKFMLKEVSDLDLSKDLKTKMKWTKIIKKLGDFQLVVDNGEAKEGEIIGILGPNGIGKTTFARILVGEITADEGSVTPEKQILSYKPQRIFPNYDGTVQQYLENASKDALSTSSWFFEEVTKRLNLHRLLESNVNDLSGGELQKLYIAATLAKEADLYVLDAPSSYLDVEERYIVAKAIKRVTRERKAVTFIIDHDLSIHDYIADRIIVFKGEPEKAGLATSPVTLKTGMNEFLRELEVTFRRDAETGRPRVNKIGSYLDRVQKERGDYYS
notes: ABCE1, ABC-type twin-ATPase, Saccharolobus solfataricus; both catalytic glutamates changed to alanine; Carries iron-sulfur clusters (FeSD); also called ABCE1 E238A/E485A; source: E. coli, recombinant (pSA4 plasmid), purified
